Four molecules from US20260146091A1 (published 2026) can be followed below.

For assay [1], the target named is mPD-L1-Fc (mouse PD-L1 ectodomain fused to human IgG1 Fc, BioLegend) (mouse, UniProt Q9EP73 19-239). As to the kind of experiment: mPD-1/mPD-L1 binding inhibition.
The target of assay [2] is biotinylated hPD-L1 fused to human IgG Fc (BPS Bioscience) (human, UniProt Q9NZQ7 19-238, biotinylated (site not stated)). As to the kind of experiment: hPD-1/hPD-L1 binding inhibition.
Assay [3] addresses T1, biotinylated mPD-1-Fc (BPS Bioscience) (mouse, UniProt Q02242 25-169, biotinylated (site not stated)).
T1 chain: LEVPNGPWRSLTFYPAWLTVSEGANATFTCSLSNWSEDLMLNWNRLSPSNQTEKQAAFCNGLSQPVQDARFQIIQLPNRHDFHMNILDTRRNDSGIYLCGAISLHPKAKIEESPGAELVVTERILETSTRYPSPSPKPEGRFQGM
Description: mPD-1/mPD-L1 binding inhibition.

Assay [4] addresses hPD-1-Fc (human PD-1 ectodomain fused to human IgG1 Fc, R&D) (human, UniProt Q15116 25-170). As to the kind of experiment: hPD-1/hPD-L1 binding inhibition.

Sequence of mPD-L1-Fc (mouse PD-L1 ectodomain fused to human IgG1 Fc, BioLegend) (Q9EP73 19-239): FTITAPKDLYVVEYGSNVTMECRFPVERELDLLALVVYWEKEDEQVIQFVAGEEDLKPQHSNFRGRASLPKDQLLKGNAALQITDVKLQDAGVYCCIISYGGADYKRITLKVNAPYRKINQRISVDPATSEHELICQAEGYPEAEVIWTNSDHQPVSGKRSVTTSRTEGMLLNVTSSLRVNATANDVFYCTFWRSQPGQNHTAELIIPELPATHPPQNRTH
Sequence of hPD-1-Fc (human PD-1 ectodomain fused to human IgG1 Fc, R&D) (Q15116 25-170): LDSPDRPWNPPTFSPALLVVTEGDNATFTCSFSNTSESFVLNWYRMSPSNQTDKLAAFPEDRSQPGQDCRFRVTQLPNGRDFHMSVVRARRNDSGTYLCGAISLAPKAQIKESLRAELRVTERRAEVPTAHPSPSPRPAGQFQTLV
Sequence of biotinylated hPD-L1 fused to human IgG Fc (BPS Bioscience) (Q9NZQ7 19-238): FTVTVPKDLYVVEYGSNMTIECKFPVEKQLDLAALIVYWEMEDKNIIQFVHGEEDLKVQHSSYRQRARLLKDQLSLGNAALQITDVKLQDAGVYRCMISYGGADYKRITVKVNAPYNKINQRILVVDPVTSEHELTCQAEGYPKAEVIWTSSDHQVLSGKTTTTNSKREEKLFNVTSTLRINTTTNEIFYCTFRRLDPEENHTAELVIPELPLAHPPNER

B1: Nb6p (anti-PD-L1 nanobody) (VHH)
VHH: EVQLVESGGGLVQAGGSLRLSCAAAGRSFNSNAMGWVRQAPGKEREIVAVISATGSYTYYEDSVKGRFTISRDNSKNTVSLQMSSLSSEDTAVYYCAGSRTAALTTIMTLFNYWGQGTQVTVSS
Take B1: the IC50 was 6.85 nM in assay [1] and 3.34 nM in assay [2].

B2: Nb11-Fc (Nb11 fused to mouse IgG1 Fc domain including hinge) (Fc fusion)
chain: AQVQLVQSGGGSVQAGDSLRLSCAVSGHPDSSYSMAWFRQAPGKERELVALISWSGAITHYSDSVKDRFTISRDNAKNEMYLQMDSLKPEDTAVYFCQADDPTSELNQYWGQGTQVTVSSGCKPCICTVPEVSSVFIFPPKPKDVLTITLTPKVTCVVVDISKDDPEVQFSWFVDDVEVHTAQTQPREEQFNSTFRSVSELPIMHQDWLNGKEFKCRVNSAAFPAPIEKTISKTKGRPKAPQVYTIPPPKEQMAKDKVSLTCMITDFFPEDITVEWQWNGQPAENYKNTQPIMDTDGSYFVYSKLNVQKSNWEAGNTFTCSVLHEGLHNHHTEKSLSHSPGK
On to B2, for which the half-maximal inhibitory concentration (IC50) in assay [3] stood at 0.0439 nM; in assay [4], 0.147 nM.

B3: Nb11 (anti-PD-1 nanobody) (VHH)
VHH: QVQLVQSGGGSVQAGDSLRLSCAVSGHPDSSYSMAWFRQAPGKERELVALISWSGAITHYSDSVKDRFTISRDNAKNEMYLQMDSLKPEDTAVYFCQADDPTSELNQYWGQGTQVTVSS
Consider B3, for which the IC50 was 1.71 nM in assay [3] and 5.85 nM in assay [4].

B4: Nb6p-Fc (Nb6p fused to mouse IgG2a Fc domain including hinge) (Fc fusion)
chain: AEVQLVESGGGLVQAGGSLRLSCAAAGRSFNSNAMGWVRQAPGKEREIVAVISATGSYTYYEDSVKGRFTISRDNSKNTVSLQMSSLSSEDTAVYYCAGSRTAALTTIMTLFNYWGQGTQVTVSSPGPRGPTIKPCPPCKCPAPNLLGGPSVFIFPPKIKDVLMISLSPIVTCVVVDVSEDDPDVQISWFVNNVEVHTAQTQTHREDYNSTLRVVSALPIQHQDWMSGKEFKCKVNNKDLPAPIERTISKPKGSVRAPQVYVLPPPEEEMTKKQVTLTCMVTDFMPEDIYVEWTNNGKTELNYKNTEPVLDSDGSYFMYSKLRVEKKNWVERNSYSCSVVHEGLHNHHTTKSFSRTPGK
In the case of B4, the IC50 in assay [1] amounted to 0.889 nM; in assay [2], 0.498 nM.

One may read the IC50 as the point on the concentration scale where inhibition reaches its midpoint.
